Experimental data: PMC9239997, “Structural basis for mitoguardin-2 mediated lipid transport at ER-mitochondrial membrane contact sites” (Nature Communications, 2022)

B1: mouse MIGA2 residues 275-570, wild type [mouse (Mus musculus)] / MSP domain of mouse VAPB (residues 1-125) fused to GST [mouse (Mus musculus)] (parent complex)
chain 1: GSLRLRADDEDSLTSEDSFFSATEIFESLQIGEYPLPLSRPAAAYEEALQLVKEGRVPCRTLRTELLGCYSDQDFLAKLHCVRQAFEGLLEERSNQIFFGEVGRQMVTGLMTKAEKSPKGFLESYEEMLSYALRPETWATTRLELEGRGVACMSFFDIVLDFILMDAFEDLENPPSSVLAVLRNRWLSDSFKETALATACWSVLKAKRRLLMVPDGFISHFYSVSEHVSPVLAFGFLGPKPQLSEVCAFFKHQIVQYLRDMFDLDNVRYTSVPALAEDILQLSRRRSEILLGYLGA
chain 2: MAKVEQVLSLEPQHELKFRGPFTDVVTTNLKLGNPTDRNVCFKVKTTVPRRYCVRPNSGVIDAGASLNVSVMLQPFDYDPNEKSKHKFMVQSMFAPPDTSDMEAVWKEAKPEDLMDSKLRCVFEL

Variants of: B1
Assay: GST pull-down; parent: 0.01; read off a plot

Row | screen value | Variant
1 | ~1 | chain 1 GSLRLRADDEDSLTSEDEFFDATEIFESLQIGEYPLPLSRPAAAYEEALQLVKEGRVPCRTLRTELLGCYSDQDFLAKLHCVRQAFEGLLEERSNQIFFGEVGRQMVTGLMTKAEKSPKGFLESYEEMLSYALRPETWATTRLELEGRGVACMSFFDIVLDFILMDAFEDLENPPSSVLAVLRNRWLSDSFKETALATACWSVLKAKRRLLMVPDGFISHFYSVSEHVSPVLAFGFLGPKPQLSEVCAFFKHQIVQYLRDMFDLDNVRYTSVPALAEDILQLSRRRSEILLGYLGA [chain 1 S18E, chain 1 S21D]
2 | ~0.01 | chain 1 GSLRLRADDEDSLTSEDEFFSATEIFESLQIGEYPLPLSRPAAAYEEALQLVKEGRVPCRTLRTELLGCYSDQDFLAKLHCVRQAFEGLLEERSNQIFFGEVGRQMVTGLMTKAEKSPKGFLESYEEMLSYALRPETWATTRLELEGRGVACMSFFDIVLDFILMDAFEDLENPPSSVLAVLRNRWLSDSFKETALATACWSVLKAKRRLLMVPDGFISHFYSVSEHVSPVLAFGFLGPKPQLSEVCAFFKHQIVQYLRDMFDLDNVRYTSVPALAEDILQLSRRRSEILLGYLGA [chain 1 S18E]
3 | ~0.4 | chain 1 GSLRLRADDEDSLTSEDSFFDATEIFESLQIGEYPLPLSRPAAAYEEALQLVKEGRVPCRTLRTELLGCYSDQDFLAKLHCVRQAFEGLLEERSNQIFFGEVGRQMVTGLMTKAEKSPKGFLESYEEMLSYALRPETWATTRLELEGRGVACMSFFDIVLDFILMDAFEDLENPPSSVLAVLRNRWLSDSFKETALATACWSVLKAKRRLLMVPDGFISHFYSVSEHVSPVLAFGFLGPKPQLSEVCAFFKHQIVQYLRDMFDLDNVRYTSVPALAEDILQLSRRRSEILLGYLGA [chain 1 S21D]
